According to US20180282393A1 (IMMATICS BIOTECHNOLOGIES, published 2018):

Target: T1, HLA-A*02:01 (human)
T1 construct: Captured on streptavidin plates and detected with anti-b2m; also called peptide-receptive MHC molecules; MHC class I
Assay: UV-ligand exchange, anti-b2m ELISA; peptide exchange yield grade (+ >=10%, ++ >=20%, +++ >=50, ++++ >=75%)
Text: Candidate peptides for T cell based therapies according to the present invention were further tested for their MHC binding capacity (affinity). The individual peptide-MHC complexes were produced by UV-ligand exchange, where a UV-sensitive peptide is cleaved upon UV-irradiation, and exchanged with the peptide of interest as analyzed. Only peptide candidates that can effectively bind and stabilize the peptide-receptive MHC molecules prevent dissociation of the MHC complexes. To determine the yield of the exchange reaction, an ELISA was performed based on the detection of the light chain (β2m) of stabilized MHC complexes. The assay was performed as generally described in Rodenko et al. (Rodenko et al., 2006).
96 well MAXISorp plates (NUNC) were coated over night with 2 ug/ml streptavidin in PBS at room temperature, washed 4× and blocked for 1 h at 37° C. in 2% BSA containing blocking buffer. Refolded HLA-A*02:01/MLA-001 monomers served as standards, covering the range of 15-500 ng/ml. Peptide-MHC monomers of the UV-exchange reaction were diluted 100 fold in blocking buffer. Samples were incubated for 1 h at 37° C., washed four times, incubated with 2 ug/ml HRP conjugated anti-β2m for 1 h at 37° C., washed again and detected with TMB solution that is stopped with […]. Absorption was measured at 450 nm. Candidate peptides that show a high exchange yield (preferably higher than 50%, most preferred higher than 75%) are generally preferred for a generation and production of antibodies or fragments thereof, and/or T cell receptors or fragments thereof, as they show sufficient avidity to the MHC molecules and prevent dissociation of the MHC complexes.

Binder	peptide exchange yield
STYGGGLSV	50 to 75%
ALWLPTDSATV	50 to 75%
GLASRILDA	50 to 75%
SLSPVILGV	≥ 75%
RLPNAGTQV	≥ 75%
LLANGVYAA	10 to 20%
VLAEGGEGV	50 to 75%
MISRTPEV	20 to 50%
FLLDQVQLGL	50 to 75%
GLAPFLLNAV	50 to 75%
IVREFLTAL	50 to 75%
SLYNLGGSKRISI	≥ 75%
KLNDTYVNV	50 to 75%
KLSDSATYL	50 to 75%
LLFAGTMTV	20 to 50%
LLPPPPPPA	50 to 75%
MLAEKLLQA	10 to 20%
NLREGDQLL	50 to 75%
SLDGFTIQV	20 to 50%
SLDGTELQL	50 to 75%
SLNGNQVTV	10 to 20%
VLPKLYVKL	20 to 50%

Binder	peptide exchange yield
TASAITPSV	50 to 75%
YMLDIFHEV	20 to 50%
GLDVTSLRPFDL	50 to 75%
SLVSEQLEPA	50 to 75%
LLRFSQDNA	50 to 75%
FLLRFSQDNA	20 to 50%
YTQPFSHYGQAL	50 to 75%
IAAIRGFLV	50 to 75%
LVRDTQSGSL	20 to 50%
GLAFSLYQA	20 to 50%
GLESEELEPEEL	20 to 50%
NLMASQPQL	50 to 75%
TQTAVITRI	10 to 20%
KVVGKDYLL	10 to 20%
ATGNDRKEAAENSL	50 to 75%
MLTELEKAL	20 to 50%
YTAQIGADIAL	50 to 75%
VLASGFLTV	≥ 75%
SMHQMLDQTL	20 to 50%
GLMKDIVGA	50 to 75%
KLFGHLTSA	20 to 50%
VAIGGVDGNVRL	20 to 50%

Binder	peptide exchange yield
LLSGDLIFL	50 to 75%
VVVTGLTLV	20 to 50%
YQDLLNVKM	50 to 75%
GAIDLLHNV	20 to 50%
ALVEVTEHV	20 to 50%
GLAPNTPGKA	50 to 75%
LILESIPVV	20 to 50%
SLLDTLREV	50 to 75%
VVMEELLKV	20 to 50%
TQTTHELTI	50 to 75%
ALYEYQPLQI	20 to 50%
SIFEGLLSGV	20 to 50%
LAYTLGVKQL	50 to 75%
GLTDVIRDV	≥ 75%
YVVGGFLYQRL	50 to 75%
LLDEKVQSV	50 to 75%
SMNGGVFAV	20 to 50%
PAVLQSSGLYSL	20 to 50%
GLLVGSEKVTM	50 to 75%
FVLDTSESV	50 to 75%
ASDPILYRPVAV	50 to 75%
FLPPAQVTV	20 to 50%
